Laboratory results: patent EP2548892A1 (CSL Behring GmbH, dated 2013)

Assays:
Human FXIIa beta (human) [1] = target: Human FXIIa beta (human) (UniProt P00748); experiment: Biacore, KD against parental 3F7 (the reference itself)
[2] = target: T1, Human FXII (unactivated Factor XII) (human, UniProt P00748 20-615); experiment: Biacore, purified IgG captured on anti-human IgG, FXII injected at 0-500 nM, 1:1 model, 25°C
T1 construct: Bought from Enzyme Research Laboratories; also called Hageman factor
T1 sequence: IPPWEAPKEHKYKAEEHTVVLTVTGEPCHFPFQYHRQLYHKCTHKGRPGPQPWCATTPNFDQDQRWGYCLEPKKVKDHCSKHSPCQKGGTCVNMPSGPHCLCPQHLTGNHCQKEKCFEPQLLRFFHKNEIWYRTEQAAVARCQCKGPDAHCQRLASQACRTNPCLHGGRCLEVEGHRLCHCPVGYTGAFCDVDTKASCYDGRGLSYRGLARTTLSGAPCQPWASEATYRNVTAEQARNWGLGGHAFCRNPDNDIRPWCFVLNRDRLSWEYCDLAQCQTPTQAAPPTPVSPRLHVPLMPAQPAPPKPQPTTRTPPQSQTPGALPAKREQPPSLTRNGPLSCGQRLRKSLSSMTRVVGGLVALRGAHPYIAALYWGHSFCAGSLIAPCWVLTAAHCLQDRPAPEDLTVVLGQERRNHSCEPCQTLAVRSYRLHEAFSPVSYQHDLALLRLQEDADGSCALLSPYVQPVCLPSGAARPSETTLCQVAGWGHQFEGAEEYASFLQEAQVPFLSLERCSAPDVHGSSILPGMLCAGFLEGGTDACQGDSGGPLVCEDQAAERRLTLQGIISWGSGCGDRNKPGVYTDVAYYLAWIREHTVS

Human FXIIa beta (human) [3] = target: Human FXIIa beta (human) (UniProt P00748); experiment: Biacore, purified IgG4 captured on anti-human IgG, FXIIa beta injected, 1:1 model
[4] = target: Human FXIIa (activated Factor XII) (human) (UniProt P00748); experiment: cell-based or functional assay
Human FXIIa beta (human) [5] = target: Human FXIIa beta (human) (UniProt P00748); experiment: Biacore, purified IgG captured on anti-human IgG, FXIIa beta injected at 0-40 nM, 1:1 model, 25°C

Fold affinity improvement (Human FXIIa beta (human) [1]): 1 fold | Kd [2]: 121 nM | Kd (Human FXIIa beta (human) [3]): 8.6 nM | koff (Human FXIIa beta (human) [3]): 0.0011 s⁻¹ | kon (Human FXIIa beta (human) [3]): 120000 M⁻¹ s⁻¹ | potency in FXIIa amidolytic activity assay, against OT2 [4]: 2 fold | Kd (Human FXIIa beta (human) [5]): 6.2 nM
B1: 3F7 monoclonal antibody (fully human IgG4/lambda) (antibody, V domains shown)
VH: EVQLLESGGGLVQPGGSLRLSCAASGFTFSKYIMQWVRQAPGKGLEWVSGIRPSGGTTVYADSVKGRFTISRDNSKNTLYLQMNSLRAEDTAVYYCARALPRSGYLISPHYYYYALDVWGQGTTVTVSS
VL: QSELTQPPSASGTPGQRVTISCSGSSSNIGRNYVYWYQQVPGTAPKLLIYSNNQRPSGVPDRFSGSKSGTSASLVISGLRSEDEADYYCAAWDASLRGVFGGGTKLTVLG
notes: also called 3F7 mAb; MAb 3F7
